Test results published in US20220293215A1 (BROAD INSTITUTE, published 2022).

T1: I-A^b (MHCII) of murine bone marrow-derived dendritic cells from C57BL/6J mice (mouse, UniProt P14434 24-256; P14483 28-265)
T1 construct: whole, on cells; also called H2-IA
T1 sequence (MHC II alpha, looked up): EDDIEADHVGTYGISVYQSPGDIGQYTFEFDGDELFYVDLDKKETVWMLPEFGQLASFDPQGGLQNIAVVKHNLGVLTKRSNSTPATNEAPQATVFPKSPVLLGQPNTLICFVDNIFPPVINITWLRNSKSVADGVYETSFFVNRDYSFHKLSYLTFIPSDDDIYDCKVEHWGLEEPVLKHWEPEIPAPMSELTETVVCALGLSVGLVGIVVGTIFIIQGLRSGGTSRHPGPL
T1 sequence (MHC II beta, looked up): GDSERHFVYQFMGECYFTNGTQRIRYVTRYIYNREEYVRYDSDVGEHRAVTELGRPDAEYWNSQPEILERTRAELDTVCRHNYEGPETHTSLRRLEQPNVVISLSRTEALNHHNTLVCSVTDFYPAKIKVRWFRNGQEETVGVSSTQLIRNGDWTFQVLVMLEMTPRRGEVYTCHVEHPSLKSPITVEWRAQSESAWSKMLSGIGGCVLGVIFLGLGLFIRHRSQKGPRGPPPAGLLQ


These binders were tested against T1, I-A^b (MHCII) of murine bone … (assay: MHCII peptidomics: Y3P IP of peptide-MHCII from BMDCs exposed to live Listeria, iTRAQ LC-MS/MS).

| Binder | logFC |
| --- | --- |
| AVDDTTVKFTLPTVAPAFENT [Listeria peptide AVDDTTVKFTLPTVAPAFENT (lmo0135)] | 0.871 log2 fold change, Listeria 6 hr versus 10 min |
| GINQAYTGSTALSDG [Listeria peptide GINQAYTGSTALSDG (lmo2360)] | 0.261 log2 fold change, Listeria 6 hr versus 10 min |
| GGINQAYTGSTALSDGLN (also called lmo2360_289-306) [Listeria peptide GGINQAYTGSTALSDGLN (lmo2360)] | 0.555 log2 fold change, Listeria 6 hr versus 10 min |
| IAVTAFAAPTIASA (also called lmo0582b_12-25) [Listeria peptide IAVTAFAAPTIASA (lmo0582 (lap))] | 0.181 log2 fold change, Listeria 6 hr versus 10 min |
| AVDDTTVKFTLPTVAPAFENTIK [Listeria peptide AVDDTTVKFTLPTVAPAFENTIK (lmo0135)] | 0.464 log2 fold change, Listeria 6 hr versus 10 min |
| GTKEKVVATPVSNVSTSSA (also called lmo0186_285-303) [Listeria peptide GTKEKVVATPVSNVSTSSA (lmo0186)] | 0.489 log2 fold change, Listeria 6 hr versus 10 min |
| DDTTVKFTLPTVAPAFENT [Listeria peptide DDTTVKFTLPTVAPAFENT (lmo0135)] | 0.786 log2 fold change, Listeria 6 hr versus 10 min |
| GGINQAYTGSTALSDG [Listeria peptide GGINQAYTGSTALSDG (lmo2360)] | 0.239 log2 fold change, Listeria 6 hr versus 10 min |
| GTKEKVVATPVSNVST [Listeria peptide GTKEKVVATPVSNVST (lmo0186)] | 0.0371 log2 fold change, Listeria 6 hr versus 10 min |
| YPGSDETPPVVNPGE [Listeria peptide YPGSDETPPVVNPGE (lmo2185)] | 0.785 log2 fold change, Listeria 6 hr versus 10 min |
| KEKVVATPVSNVSTSS [Listeria peptide KEKVVATPVSNVSTSS (lmo0186)] | -0.21 log2 fold change, Listeria 6 hr versus 10 min |
| YVFDTAKATAASSYPGSDETPP [Listeria peptide YVFDTAKATAASSYPGSDETPP (lmo2185)] | 0.611 log2 fold change, Listeria 6 hr versus 10 min |
| APGQETQHYYGLPVADSAIDR (also called lmo2558_533-553) [Listeria peptide APGQETQHYYGLPVADSAIDR (lmo2558 (ami))] | 0.856 log2 fold change, Listeria 6 hr versus 10 min |
| STVVVEAGDTLWGIAQSKGTT (also called lmo0582a_26-46) [Listeria peptide STVVVEAGDTLWGIAQSKGTT (lmo0582 (lap))] | 0.489 log2 fold change, Listeria 6 hr versus 10 min |
| RYVFDTAKATAASSYPGSDETPPVVNPGETNPP [Listeria peptide RYVFDTAKATAASSYPGSDETPPVVNPGETNPP (lmo2185)] | 0.634 log2 fold change, Listeria 6 hr versus 10 min |
| DFRYVFDTAKATAASSYPGSDETPP [Listeria peptide DFRYVFDTAKATAASSYPGSDETPP (lmo2185)] | 0.678 log2 fold change, Listeria 6 hr versus 10 min |
| TKEKVVATPVSNVSTSS [Listeria peptide TKEKVVATPVSNVSTSS (lmo0186)] | -0.286 log2 fold change, Listeria 6 hr versus 10 min |
| DDTTVKFTLPTVAPAFE [Listeria peptide DDTTVKFTLPTVAPAFE (lmo0135)] | 0.387 log2 fold change, Listeria 6 hr versus 10 min |
| RYVFDTAKATAASSYPGSDETPP [Listeria peptide RYVFDTAKATAASSYPGSDETPP (lmo2185)] | 0.271 log2 fold change, Listeria 6 hr versus 10 min |
| EAKELVDNAPKALKEGIA [Listeria peptide EAKELVDNAPKALKEGIA (lmo0251 (rplL))] | 0.93 log2 fold change, Listeria 6 hr versus 10 min |
| VDDTTVKFTLPTVAPAFENT (also called lmo0135_150-169) [Listeria peptide VDDTTVKFTLPTVAPAFENT (lmo0135)] | 0.844 log2 fold change, Listeria 6 hr versus 10 min |
| SSYPGSDETPPVVNPGETNPP [Listeria peptide SSYPGSDETPPVVNPGETNPP (lmo2185)] | 0.292 log2 fold change, Listeria 6 hr versus 10 min |
| DGLTWHDGKPLTADDV [Listeria peptide DGLTWHDGKPLTADDV (lmo0135)] | 1.02 log2 fold change, Listeria 6 hr versus 10 min |
| TTVKFTLPTVAPAFENT [Listeria peptide TTVKFTLPTVAPAFENT (lmo0135)] | 0.0598 log2 fold change, Listeria 6 hr versus 10 min |
| VDDTTVKFTLPTVAPAFE [Listeria peptide VDDTTVKFTLPTVAPAFE (lmo0135)] | 0.455 log2 fold change, Listeria 6 hr versus 10 min |
| VETKADIDALSLLSDKIFVTNQT [Listeria peptide VETKADIDALSLLSDKIFVTNQT (lmo1451 (ispH))] | 1.06 log2 fold change, Listeria 6 hr versus 10 min |
| ADFRYVFDTAKATAASSYPGSDETPP [Listeria peptide ADFRYVFDTAKATAASSYPGSDETPP (lmo2185)] | 1.56 log2 fold change, Listeria 6 hr versus 10 min |
| ADFRYVFDTAKATAASSYPG (also called lmo2185_293-312) [Listeria peptide ADFRYVFDTAKATAASSYPG (lmo2185)] | 1.57 log2 fold change, Listeria 6 hr versus 10 min |
| YPGSDETPPVVNPGETN [Listeria peptide YPGSDETPPVVNPGETN (lmo2185)] | 1.86 log2 fold change, Listeria 6 hr versus 10 min |
| DDTTVKFTLPTVAPAFEN [Listeria peptide DDTTVKFTLPTVAPAFEN (lmo0135)] | 0.26 log2 fold change, Listeria 6 hr versus 10 min |
